For 66 substances, Peptide exchange results are on record in patent US10221225B2, “Peptides and combination of peptides and scaffolds thereof for use in immunotherapy against colorectal carcinoma (CRC) and other cancers” (immatics biotechnologies GmbH, priority 2015, dated 2019).

This test concerns the target HLA-A*02:01 (Homo sapiens, UniProt P04439, D140Y/D185E/D98H/E176V/E277Q/G131W/G231S/I119V/I121R/I166T/I218V/L300P/L318F/N151K/N90K/P208A/P217A/Q86G/Q94H/R138H/R169H/T345S). Description: MHC binding assay (UV-ligand exchange, beta2m ELISA, peptide exchange yield). The following applies: MHC class I binding score; binding to HLA-A*02:01 ranged by peptide exchange yield (UV-ligand exchange, β2m ELISA). An excerpt:
Candidate peptides for T cell based therapies according to the present invention were further tested for their MHC binding capacity (affinity). The individual peptide-MHC complexes were produced by UV-ligand exchange, where a UV-sensitive peptide is cleaved upon UV-irradiation, and exchanged with the peptide of interest as analyzed. Only peptide candidates that can effectively bind and stabilize the peptide-receptive MHC molecules prevent dissociation of the MHC complexes. To determine the yield of the exchange reaction, an ELISA was performed based on the detection of the light chain (β2m) of stabilized MHC complexes. The assay was performed as generally described in Rodenko et al. (Rodenko et al., 2006).
96 well MAXISorp plates (NUNC) were coated over night with 2 ug/ml streptavidin in PBS at room temperature, washed 4× and blocked for 1 h at 37° C. in 2% BSA containing blocking buffer. Refolded HLA-A*02:01/MLA-001 monomers served as standards, covering the range of 15-500 ng/ml. Peptide-MHC monomers of the UV-exchange reaction were diluted 100 fold in blocking buffer. Samples were incubated for 1 h at 37° C., washed four times, incubated with 2 ug/ml HRP conjugated anti-β2m for 1 h at 37° C., washed again and detected with TMB solution that is stopped with […]. Absorption was measured at 450 nm. Candidate peptides that show a high exchange yield (preferably higher than 50%, most preferred higher than 75%) are generally preferred for a generation and production of antibodies or fragments thereof, and/or T cell receptors or fragments thereof, as they show sufficient avidity to the MHC molecules and prevent dissociation of the MHC complexes.

Regarding “4 (RLAELTVDEFL; listed as Homo sapiens) [compound 4]”, the Peptide exchange entry was “″+++″ (≥50 = +++)”.

With “6 (FLAELPGSLSL; listed as Homo sapiens) [compound 6]”, the Peptide exchange entry is reported as “″+++″ (≥50 = +++)”.

In the case of “8 (ALMLQGVDLL; listed as Homo sapiens) [compound 8]”, the Peptide exchange entry is reported as “″+++″ (≥50 = +++)”. “14 (FLDKPEDVLL; listed as Homo sapiens) [compound 14]”: the Peptide exchange entry is on record as “″++″ (≥20% = ++)”. Turning to “15 (LQLDKEFQL; listed as Homo sapiens) [compound 15]”, the Peptide exchange entry is given as “″+++″ (≥50 = +++)”. Turning to “16 (VLVDQSWVL; listed as Homo sapiens) [compound 16]”, the Peptide exchange entry is recorded as “″+++″ (≥50 = +++)”. For the substance “20 (YLKDGDVML; listed as Homo sapiens) [compound 20]”, the Peptide exchange entry is “″+++″ (≥50 = +++)”. For “23 (FLDANGHFV; listed as Homo sapiens) [compound 23]”, the Peptide exchange entry is reported as “″+++″ (≥50 = +++)”. To “24 (VLDGVLMEL; listed as Homo sapiens) [compound 24]” belongs “″+++″ (≥50 = +++)”. In the case of “25 (SLADRLIGV; listed as Homo sapiens) [compound 25]”, the Peptide exchange result is on record as “″++++″ (≥75% = ++++)”. For the substance “26 (GLASKENFSNVSL; listed as Homo sapiens) [compound 26]”, the Peptide exchange entry was “″++″ (≥20% = ++)”. Turning to “27 (LLADEDSSYL; listed as Homo sapiens) [compound 27]”, the Peptide exchange entry is given as “″++″ (≥20% = ++)”.

Take “28 (ALTEIQEFI; listed as Homo sapiens) [compound 28]”: the Peptide exchange entry was “″++++″ (≥75% = ++++)”. Consider “29 (QMLDVAIRV; listed as Homo sapiens) [compound 29]”, for which the Peptide exchange result was “″+++″ (≥50 = +++)”. For the substance “30 (GLSSAYGGL; listed as Homo sapiens) [compound 30]”, the Peptide exchange result is recorded as “″+″ (≥10% = +)”. Take “33 (ALWEKNTHL; listed as Homo sapiens) [compound 33]”: the Peptide exchange entry is “″+++″ (≥50 = +++)”. To “34 (ILLEKSVSV; listed as Homo sapiens) [compound 34]” belongs “″+++″ (≥50 = +++)”. On to “35 (KLLDLTVRI; listed as Homo sapiens) [compound 35]”, for which the Peptide exchange result is reported as “″+++″ (≥50 = +++)”. To “36 (GLLESPSIFNFTA; listed as Homo sapiens) [compound 36]” belongs “″+++″ (≥50 = +++)”.

As for “40 (ALSNVIHKV; listed as Homo sapiens) [compound 40]”, the Peptide exchange entry is listed as “″++″ (≥20% = ++)”.

In the case of “41 (ILDDSFKLL; listed as Homo sapiens) [compound 41]”, the Peptide exchange entry is listed as “″++″ (≥20% = ++)”.

In the case of “43 (TLDAAQPRV; listed as Homo sapiens) [compound 43]”, the Peptide exchange result is “″++″ (≥20% = ++)”. In the case of “44 (SLESKLTSV; listed as Homo sapiens) [compound 44]”, the Peptide exchange entry is recorded as “″+++″ (≥50 = +++)”.

Consider “45 (ALAELLHGA; listed as Homo sapiens) [compound 45]”, for which the Peptide exchange entry is recorded as “″+++″ (≥50 = +++)”.

“46 (GLDDRYSLV; listed as Homo sapiens) [compound 46]”: the Peptide exchange result is listed as “″+++″ (≥50 = +++)”. For the substance “48 (FLDASDPAL; listed as Homo sapiens) [compound 48]”, the Peptide exchange result is on record as “″++″ (≥20% = ++)”. “50 (TLMAEMHVV; listed as Homo sapiens) [compound 50]”: the Peptide exchange entry is given as “″+++″ (≥50 = +++)”. “51 (QVWEIQHTV; listed as Homo sapiens) [compound 51]”: the Peptide exchange entry is reported as “″++″ (≥20% = ++)”. “52 (ALDSSNSMQTI; listed as Homo sapiens) [compound 52]”: the Peptide exchange entry is “″++″ (≥20% = ++)”. Turning to “53 (FLLGSEIKL; listed as Homo sapiens) [compound 53]”, the Peptide exchange entry is “″+++″ (≥50 = +++)”. On to “54 (ALLNGEYLLAA; listed as Homo sapiens) [compound 54]”, for which the Peptide exchange entry is “″+++″ (≥50 = +++)”. Take “56 (VLFTDEGVPKFL; listed as Homo sapiens) [compound 56]”: the Peptide exchange result is on record as “″++″ (≥20% = ++)”. As for “57 (NLLEKENYL; listed as Homo sapiens) [compound 57]”, the Peptide exchange result is recorded as “″+++″ (≥50 = +++)”. For “58 (AMADKMDMSL; listed as Homo sapiens) [compound 58]”, the Peptide exchange result was “″++″ (≥20% = ++)”. To “60 (VLDEDEPRFL; listed as Homo sapiens) [compound 60]” belongs “″++″ (≥20% = ++)”; to “61 (KLLKLFQGV; listed as Homo sapiens) [compound 61]”, “″+++″ (≥50 = +++)”; to “62 (YLAPENGYL; listed as Homo sapiens) [compound 62]”, “″++″ (≥20% = ++)”.

Regarding “63 (KLFSILSTV; listed as Homo sapiens) [compound 63]”, the Peptide exchange entry is “″++″ (≥20% = ++)”. As for “66 (GLDDGPDFL; listed as Homo sapiens) [compound 66]”, the Peptide exchange entry is recorded as “″++″ (≥20% = ++)”. Regarding “67 (SLNDLEKDVMLL; listed as Homo sapiens) [compound 67]”, the Peptide exchange result is “″+++″ (≥50 = +++)”. Regarding “68 (SILQFVHMV; listed as Homo sapiens) [compound 68]”, the Peptide exchange entry is recorded as “″+++″ (≥50 = +++)”. For the substance “69 (GMLNEAEGKAIKL; listed as Homo sapiens) [compound 69]”, the Peptide exchange entry is “″++″ (≥20% = ++)”. For the substance “70 (MISELEVRL; listed as Homo sapiens) [compound 70]”, the Peptide exchange result is “″+++″ (≥50 = +++)”.

Consider “71 (RLWTEIPTAI; listed as Homo sapiens) [compound 71]”, for which the Peptide exchange result is reported as “″+++″ (≥50 = +++)”. On to “72 (YLLDYPNNLL; listed as Homo sapiens) [compound 72]”, for which the Peptide exchange result is listed as “″+++″ (≥50 = +++)”. Turning to “73 (YLFDIAVSM; listed as Homo sapiens) [compound 73]”, the Peptide exchange entry is recorded as “″+++″ (≥50 = +++)”.

For “74 (YLMGFLHAV; listed as Homo sapiens) [compound 74]”, the Peptide exchange entry is listed as “″+++″ (≥50 = +++)”. For the substance “75 (EMIENIQSV; listed as Homo sapiens) [compound 75]”, the Peptide exchange result is given as “″++″ (≥20% = ++)”. In the case of “76 (YLIGEKQHYL; listed as Homo sapiens) [compound 76]”, the Peptide exchange result is listed as “″+++″ (≥50 = +++)”.

In the case of “77 (SLLKRDFGA; listed as Homo sapiens) [compound 77]”, the Peptide exchange entry is listed as “″++″ (≥20% = ++)”.

Consider “78 (ALDPELLLL; listed as Homo sapiens) [compound 78]”, for which the Peptide exchange entry was “″++″ (≥20% = ++)”.

Take “79 (SLAADQLLKL; listed as Homo sapiens) [compound 79]”: the Peptide exchange result was “″++″ (≥20% = ++)”. “80 (QVDEVVDIMRV; listed as Homo sapiens) [compound 80]”: the Peptide exchange entry is “″++″ (≥20% = ++)”.

Consider “81 (ALLSQQTHL; listed as Homo sapiens) [compound 81]”, for which the Peptide exchange result is “″+++″ (≥50 = +++)”. To “82 (QLYEEPDTKL; listed as Homo sapiens) [compound 82]” belongs “″++″ (≥20% = ++)”. With “83 (LTIEDGIFEV; listed as Homo sapiens) [compound 83]” the entry was “″+++″ (≥50 = +++)”; with “84 (SMVEDITGLRL; listed as Homo sapiens) [compound 84]”, “″+++″ (≥50 = +++)”; with “85 (ILHDINSDGVL; listed as Homo sapiens) [compound 85]”, “″++″ (≥20% = ++)”. With “86 (KVFPGKISV; listed as Homo sapiens) [compound 86]” the entry was “″++″ (≥20% = ++)”; with “87 (LLFDAPDLRL; listed as Homo sapiens) [compound 87]”, “″+++″ (≥50 = +++)”. On to “88 (KLDIKVETV; listed as Homo sapiens) [compound 88]”, for which the Peptide exchange entry is “″++++″ (≥75% = ++++)”. Take “89 (SLIEYEFRV; listed as Homo sapiens) [compound 89]”: the Peptide exchange entry is given as “″+++″ (≥50 = +++)”.

On to “90 (GLLKPGLNVVL; listed as Homo sapiens) [compound 90]”, for which the Peptide exchange result is “″+++″ (≥50 = +++)”. To “91 (TVDVATPSV; listed as Homo sapiens) [compound 91]” belongs “″+++″ (≥50 = +++)”; to “92 (WIDDTSAFV; listed as Homo sapiens) [compound 92]”, “″+++″ (≥50 = +++)”; to “93 (SLQELRLLL; listed as Homo sapiens) [compound 93]”, “″++++″ (≥75% = ++++)”.
